Measured values from PMC9781295.

What was measured:
[1] = target: GlyT1b L288C, N-terminal FLAG-tagged (human)
[2] = target: GlyT1b L288C, N-terminal FLAG-tagged (human); experiment: cross-linking; oxidative cross-linking on intact HEK293 cells with copper phenanthroline (CuP, 1-100 μM) for 15 min at 22 °C in HEPES buffered saline, quenched with 10 mM N-ethylmaleimide; lysates in non-reducing sample buffer, anti-FLAG immunoblot; also with ZnCl2, NMDGCl, Na+, glycine, bitopertin or LY2365109 present, or 100 mM DTT on the lysates

GlyT1b L288C, N-terminal FLAG-tagged (natural protein)
[3H]glycine uptake after CuP treatment (1 to 100 μM), transport activity remaining at the highest CuP concentration, % of control without CuP [1]: 54 % of control
maximally increased % dimer fraction (CuP 1 to 100 μM) [2]: 55.9%
stoichiometry N [2]: 2
